Assay results from paper PMC10470887.

Target: SpGrx3 R47F mutant (Sphingomonas sp. PAMC 26621)
Assay: SEC; Superdex 200 prep grade XK16 column; 50 mM Tris·HCl, 50 mM NaCl, pH 8.0; molecular weight against a protein standard mix

SpGrx3 R47F mutant (enzyme)
stoichiometry N: 2
